Reference: US9284543B2, “Neutral active soluble truncated PH20 polypeptides and uses thereof” (Halozyme, Inc., priority 2008, dated 2016)

Tests used:
CHO-S cells [1] = experiment: Western blot analysis of PH20 expression in media and cells after transient expression; format: cell-based, Chinese Hamster; conditions: media versus cells
Method in brief: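 CHO-S cells were transiently transfected with mutant PH20-HZ24 plasmids using GeneJuice and expressed for 48-72 h at 37 °C, 5% CO2. Media and cells were harvested separately, with PI-PLC treatment used to release GPI-anchored protein. Non-reduced samples were blotted with rabbit anti-PH20 (0.5 μg/mL), and a band near 66 kDa was scored as PH20.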

CHO-S cells [2] = experiment: PI-PLC treatment of expressing cells, Western blot of media and cells; format: cell-based, Chinese Hamster; conditions: cells incubated with PI-PLC for 2 hours
Method in brief: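 CHO-S cells transiently expressing rHuPH20 or C-terminal truncation mutants were treated with PI-PLC (0.5 units/well, or 3.0 units/dish in serum/detergent-free medium) for 2 h at 37 °C after 48–72 h expression. Untreated and treated media and cell extracts were analysed separately by Western blot for PH20.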

[3] = Triton X-114 partition assay; format: physicochemical; conditions: partition into aqueous phase of Triton X-114 at 37° C.
Procedure: Solubility of a hyaluronidase can be determined by any method known to one of the skill in the art. One method for determining solubility is by detergent partitioning. […] For example, the solubility of the PH20 polypeptides described herein is assessed as described in Example 4. Membrane-anchored hyaluronidases, such as lipid-anchored hyaluronidases, including GPI-anchored hyaluronidases, will partition into the detergent-rich phase, but will partition into the detergent-poor or aqueous phase following treatment with Phospholipase C. Phospholipase C is an enzyme that cleaves the […] found in GPI-anchored proteins. Treatment with PLC will cause release of GPI-linked proteins from the outer cell membrane.
The samples were heated to 37° C. for 3 minutes to induce phase separation and centrifuged for 3 min at 4000 g at room temperature. Aqueous and detergent phases were removed for SDS-PAGE analysis and Western blotting. Rabbit anti-PH20 IgG (0.5 μg/mL) was used as the primary antibody and HRP-conjugated goat anti-Rabbit IgG (0.1 ng/mL, Cat#DC03L, EMD) was used as the secondary antibody. Full length human PH20, which partitions strongly into the detergent phase, was used as a control.

[4] = Microtiter hyaluronidase activity assay with biotinylated-hyaluronic acid; format: biochemical; conditions: 72 hour post transfection supernatant

Row | pH 5.5 Activity ([4]; Table 6) | pH 7.4 Activity ([4]; Table 6) | pH 5.5 Activity ([4]; Table 6A) | pH 7.4 Activity ([4]; Table 6A) | Molecule | Expressed in Media (CHO-S cells [1]) | Expressed in Media Following Addition of PI-PLC (CHO-S cells [2]) | Soluble [3]
1 | 0.7335 Units/ml | 0.5715 Units/ml | 0.851 Units/ml | 0.689 Units/ml | SPAM1-SATM: C-terminally truncated human PH20, precursor 493 aa (SEQ ID NO:10), mature 458 aa (SEQ ID NO:62) (protein, listed as Homo sapiens, HuPH20 precursor 1-493; esHuPH20 36-493) chain 1: MGVLKFKHIFFRSFVKSSGVSQIVFTFLLIPCCLTLNFRAPPVIPNVPFLWAWNAPSEFCLGKFDEPLDMSLFSFIGSPRINATGQGVTIFYVDRLGYYPYIDSITGVTVNGGIPQKISLQDHLDKAKKDITFYMPVDNLGMAVIDWEEWRPTWARNWKPKDVYKNRSIELVQQQNVQLSLTEATEKAKQEFEKAGKDFLVETIKLGKLLRPNHLWGYYLFPDCYNHHYKKPGYNGSCFNVEIKRNDDLSWLWNESTALYPSIYLNTQQSPVAATLYVRNRVREAIRVSKIPDAKSPLPVFAYTRIVFTDQVLKFLSQDELVYTFGETVALGASGIVIWGTLSIMRSMKSCLLLDNYMETILNPYIINVTLAAKMCSQVLCQEQGVCIRKNWNSSDYLHLNPDNFAIQLEKGGKFTVRGKPTLEDLEQFSEKFYCSCYSTLSCKEKADVKDTDAVDVCIADGVCIDAFLKPPMETEEPQIFYNASPSTLSATM chain 2: LNFRAPPVIPNVPFLWAWNAPSEFCLGKFDEPLDMSLFSFIGSPRINATGQGVTIFYVDRLGYYPYIDSITGVTVNGGIPQKISLQDHLDKAKKDITFYMPVDNLGMAVIDWEEWRPTWARNWKPKDVYKNRSIELVQQQNVQLSLTEATEKAKQEFEKAGKDFLVETIKLGKLLRPNHLWGYYLFPDCYNHHYKKPGYNGSCFNVEIKRNDDLSWLWNESTALYPSIYLNTQQSPVAATLYVRNRVREAIRVSKIPDAKSPLPVFAYTRIVFTDQVLKFLSQDELVYTFGETVALGASGIVIWGTLSIMRSMKSCLLLDNYMETILNPYIINVTLAAKMCSQVLCQEQGVCIRKNWNSSDYLHLNPDNFAIQLEKGGKFTVRGKPTLEDLEQFSEKFYCSCYSTLSCKEKADVKDTDAVDVCIADGVCIDAFLKPPMETEEPQIFYNASPSTLSATM | YES | Initially in media | YES
2 | 1.2375 Units/ml | 0.819 Units/ml |  |  | SPAM1-STLS: C-terminally truncated human PH20, precursor 490 aa (SEQ ID NO:13), mature 455 aa (SEQ ID NO:65) (protein, listed as Homo sapiens, HuPH20 precursor 1-490; mature HuPH20 36-490) chain 1: MGVLKFKHIFFRSFVKSSGVSQIVFTFLLIPCCLTLNFRAPPVIPNVPFLWAWNAPSEFCLGKFDEPLDMSLFSFIGSPRINATGQGVTIFYVDRLGYYPYIDSITGVTVNGGIPQKISLQDHLDKAKKDITFYMPVDNLGMAVIDWEEWRPTWARNWKPKDVYKNRSIELVQQQNVQLSLTEATEKAKQEFEKAGKDFLVETIKLGKLLRPNHLWGYYLFPDCYNHHYKKPGYNGSCFNVEIKRNDDLSWLWNESTALYPSIYLNTQQSPVAATLYVRNRVREAIRVSKIPDAKSPLPVFAYTRIVFTDQVLKFLSQDELVYTFGETVALGASGIVIWGTLSIMRSMKSCLLLDNYMETILNPYIINVTLAAKMCSQVLCQEQGVCIRKNWNSSDYLHLNPDNFAIQLEKGGKFTVRGKPTLEDLEQFSEKFYCSCYSTLSCKEKADVKDTDAVDVCIADGVCIDAFLKPPMETEEPQIFYNASPSTLS chain 2: LNFRAPPVIPNVPFLWAWNAPSEFCLGKFDEPLDMSLFSFIGSPRINATGQGVTIFYVDRLGYYPYIDSITGVTVNGGIPQKISLQDHLDKAKKDITFYMPVDNLGMAVIDWEEWRPTWARNWKPKDVYKNRSIELVQQQNVQLSLTEATEKAKQEFEKAGKDFLVETIKLGKLLRPNHLWGYYLFPDCYNHHYKKPGYNGSCFNVEIKRNDDLSWLWNESTALYPSIYLNTQQSPVAATLYVRNRVREAIRVSKIPDAKSPLPVFAYTRIVFTDQVLKFLSQDELVYTFGETVALGASGIVIWGTLSIMRSMKSCLLLDNYMETILNPYIINVTLAAKMCSQVLCQEQGVCIRKNWNSSDYLHLNPDNFAIQLEKGGKFTVRGKPTLEDLEQFSEKFYCSCYSTLSCKEKADVKDTDAVDVCIADGVCIDAFLKPPMETEEPQIFYNASPSTLS | YES | Initially in media | YES
3 | 0.5625 Units/ml | 0.3645 Units/ml | 0.729 Units/ml | 0.851 Units/ml | SPAM1-TLSA: C-terminally truncated human PH20, precursor 491 aa (SEQ ID NO:11), mature 456 aa (SEQ ID NO:63) (protein, listed as Homo sapiens, HuPH20 precursor 1-491; esHuPH20 36-491) chain 1: MGVLKFKHIFFRSFVKSSGVSQIVFTFLLIPCCLTLNFRAPPVIPNVPFLWAWNAPSEFCLGKFDEPLDMSLFSFIGSPRINATGQGVTIFYVDRLGYYPYIDSITGVTVNGGIPQKISLQDHLDKAKKDITFYMPVDNLGMAVIDWEEWRPTWARNWKPKDVYKNRSIELVQQQNVQLSLTEATEKAKQEFEKAGKDFLVETIKLGKLLRPNHLWGYYLFPDCYNHHYKKPGYNGSCFNVEIKRNDDLSWLWNESTALYPSIYLNTQQSPVAATLYVRNRVREAIRVSKIPDAKSPLPVFAYTRIVFTDQVLKFLSQDELVYTFGETVALGASGIVIWGTLSIMRSMKSCLLLDNYMETILNPYIINVTLAAKMCSQVLCQEQGVCIRKNWNSSDYLHLNPDNFAIQLEKGGKFTVRGKPTLEDLEQFSEKFYCSCYSTLSCKEKADVKDTDAVDVCIADGVCIDAFLKPPMETEEPQIFYNASPSTLSA chain 2: LNFRAPPVIPNVPFLWAWNAPSEFCLGKFDEPLDMSLFSFIGSPRINATGQGVTIFYVDRLGYYPYIDSITGVTVNGGIPQKISLQDHLDKAKKDITFYMPVDNLGMAVIDWEEWRPTWARNWKPKDVYKNRSIELVQQQNVQLSLTEATEKAKQEFEKAGKDFLVETIKLGKLLRPNHLWGYYLFPDCYNHHYKKPGYNGSCFNVEIKRNDDLSWLWNESTALYPSIYLNTQQSPVAATLYVRNRVREAIRVSKIPDAKSPLPVFAYTRIVFTDQVLKFLSQDELVYTFGETVALGASGIVIWGTLSIMRSMKSCLLLDNYMETILNPYIINVTLAAKMCSQVLCQEQGVCIRKNWNSSDYLHLNPDNFAIQLEKGGKFTVRGKPTLEDLEQFSEKFYCSCYSTLSCKEKADVKDTDAVDVCIADGVCIDAFLKPPMETEEPQIFYNASPSTLSA | YES | Initially in media | YES
